The target of data set [1] is T1, SOG1NAC (WT NAC domain) (Arabidopsis thaliana, UniProt Q6NQK2 58-211).
T1 sequence: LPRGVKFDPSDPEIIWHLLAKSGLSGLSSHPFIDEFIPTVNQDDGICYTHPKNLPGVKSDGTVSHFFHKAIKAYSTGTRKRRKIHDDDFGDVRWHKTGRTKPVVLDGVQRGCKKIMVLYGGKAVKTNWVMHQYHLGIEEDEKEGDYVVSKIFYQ
Put plainly: EMSA. For orientation: A gel shift assay detects complexes by their altered migration in electrophoresis.

The target in data set [2] is T1, SOG1NAC (WT NAC domain). Put plainly: EMSA. The source holds these as a separate data set.
Data set [3] addresses T1, SOG1NAC (WT NAC domain). Put plainly: EMSA. The source holds these as a separate data set.
Data set [4] deals with T1, SOG1NAC (WT NAC domain). The data set is described as follows: EMSA. This is another data set of the same source.
Data set [5] deals with T1, SOG1NAC (WT NAC domain). The data set is described as follows: EMSA. This is another data set of the same source.
Data set [6] concerns the target T1, SOG1NAC (WT NAC domain). Put plainly: ITC. In general terms: In ITC the heat of successive injections is recorded.
Data set [7] concerns the target T1, SOG1NAC (WT NAC domain). Put plainly: EMSA. The source holds these as a separate data set.
In data set [8] the target is T2, SOG1NAC-DNAstrand (Arabidopsis thaliana, UniProt Q6NQK2 58-211, R150S;H152S;T154A;R156S;T157S).
T2 sequence: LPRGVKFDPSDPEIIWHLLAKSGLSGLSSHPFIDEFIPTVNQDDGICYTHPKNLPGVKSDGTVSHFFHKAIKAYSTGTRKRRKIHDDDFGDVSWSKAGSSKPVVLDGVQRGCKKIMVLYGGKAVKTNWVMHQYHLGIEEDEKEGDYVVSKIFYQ
Put plainly: EMSA.

Data set [9] deals with T3, SOG1NAC-RKRR (Arabidopsis thaliana, UniProt Q6NQK2 58-211, R136A;K137A;R138A;R139A).
T3 sequence: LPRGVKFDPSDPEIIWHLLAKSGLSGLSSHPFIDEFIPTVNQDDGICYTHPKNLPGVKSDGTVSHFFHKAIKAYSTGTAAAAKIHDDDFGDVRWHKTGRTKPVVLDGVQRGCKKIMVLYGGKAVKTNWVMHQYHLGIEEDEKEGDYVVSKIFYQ
The data set is described as follows: EMSA.

Data set [10] deals with T1, SOG1NAC (WT NAC domain). The data set is described as follows: ITC. This is another data set of the same source.

B1: pSMR5 site 2 (RC) (dsDNA)
DNA 1: TTAGATTGCTTCTTTATTACACTAGTTTTGG
DNA 2: CCAAAACTAGTGTAATAAAGAAGCAATCTAA
Regarding B1, the binding result in data set [1] is “binds”.

B2: Designed oligo 1 (two pBRCA1 sites) (dsDNA)
DNA 1: TCTGTAAAGCTTTCAAGGGAAGCCTCTTTGACGTAACAGAAACCCCGGAGTAAGCTCCCGTGGGTCTGTAAAGCTTTCAAGGGAAGCCTCTTTGA
DNA 2: TCAAAGAGGCTTCCCTTGAAAGCTTTACAGACCCACGGGAGCTTACTCCGGGGTTTCTGTTACGTCAAAGAGGCTTCCCTTGAAAGCTTTACAGA
Consider B2, for which the binding result in data set [2] is reported as “binds”.

B3: pTKa1 31 bp (dsDNA)
DNA 1: TGACAAATCTTCTCCAGCAATTTTCTTCCTT
DNA 2: AAGGAAGAAAATTGCTGGAGAAGATTTGTCA
Consider B3, for which the binding result in data set [3] is recorded as “binds”.

B4: pXRI1 31 bp (dsDNA)
DNA 1: ATAAAAAGCTTCTCTTGCAATTCTCTCTTCC
DNA 2: GGAAGAGAGAATTGCAAGAGAAGCTTTTTAT
As to B4, the binding result in [3] was “binds”.

B5: pSMR5 97 bp (dsDNA)
DNA 1: TACCTAGCAACTTCCAGAACAAGCTACGGTCACTTCCAAAACTAGTGTAATAAAGAAGCAATCTAATTAAGAACCTTATTAGGAAAGTGCGAGAGAG
DNA 2: CTCTCTCGCACTTTCCTAATAAGGTTCTTAATTAGATTGCTTCTTTATTACACTAGTTTTGGAAGTGACCGTAGCTTGTTCTGGAAGTTGCTAGGTA
In the case of B5, the binding result in data set [4] is given as “binds”.

B6: Designed oligo 2 (one pBRCA1 site) (dsDNA)
DNA 1: TCTGTAAAGCTTTCAAGGGAAGCCTCTTTGACGTAACAGAAACCCCGGAGTAAGCTCCCGTGGGGTCGGCGATGGTGGTAACTAATTATGTTCCT
DNA 2: AGGAACATAATTAGTTACCACCATCGCCGACCCCACGGGAGCTTACTCCGGGGTTTCTGTTACGTCAAAGAGGCTTCCCTTGAAAGCTTTACAGA
Regarding B6, the binding result in data set [5] was “binds”.

B7: non-target 31 bp (random) (dsDNA)
DNA 1: GTCGGCGATGGTGGTAACTAATTATGTTCCT
DNA 2: AGGAACATAATTAGTTACCACCATCGCCGAC
Turning to B7, in data set [6], the binding result is listed as “no binding”.

B8: pSMR5 site 1 (RC) (dsDNA)
DNA 1: TGACCGTAGCTTGTTCTGGAAGTTGCTAGGT
DNA 2: ACCTAGCAACTTCCAGAACAAGCTACGGTCA
On to B8, for which the binding result in [1] is given as “binds”.

B9: pSMR5 site 3 (dsDNA)
DNA 1: ATTAAGAACCTTATTAGGAAAGTGCGAGAGA
DNA 2: TCTCTCGCACTTTCCTAATAAGGTTCTTAAT
Regarding B9, the binding result in [7] is “no binding”.

B10: pBRCA1 31 bp (dsDNA)
DNA 1: TCAAAGAGGCTTCCCTTGAAAGCTTTACAGA
DNA 2: TCTGTAAAGCTTTCAAGGGAAGCCTCTTTGA
B10: the binding result in data set [8] and in data set [9] was “no binding” in each case. The Kd – broadly, the equilibrium constant for the complex coming apart – in data set [10] was determined as 139 nM.

B11: pBRCA1 49 bp (dsDNA)
DNA 1: GCGTGTCCTTCAAAGAGGCTTCCCTTGAAAGCTTTACAGACTAAATAAA
DNA 2: TTTATTTAGTCTGTAAAGCTTTCAAGGGAAGCCTCTTTGAAGGACACGC
As to B11, the binding result in data set [1] was “binds”.

The values are drawn from paper PMC12817079.
